One data set in a line: isoelectric point. The class given is physicochemical. The following applies: given as pH. From the text:
The polypeptide hormone of this invention has an isoelectric point (pI) at pH 7.5 ± 0.1. Lack of affinity to activated charcoal indicates the absence of aromatic amino acids. Elution of the polypeptide with the void volume when chromatographed on Sephadex G-10 and retention on Sephadex G-15, G-25 and G-50 indicates a molecular weight greater than 700 and less than 3,000. Ultrafiltration through Amicon membranes indicates a molecular weight of […] to 10,000. No significant retention of the polypeptide is observed on CF-50, PM-30 and PM-10 membranes which have molecular cut-offs of 50,000; 30,000 and 10,000 respectively. Conversely no significant activity is found in UM2 and UM0.5 filtrates which have molecular weight cut-offs of 1,000 and 500 respectively. The polypeptide has the property that it binds to carboxymethyl cellulose at pH lower than 7.0 and to DEAE cellulose at a pH higher than 9.0. The polypeptide bound on carboxymethyl cellulose can be eluted with 0.12M NaCl.

The subject of data set [1] is spleen rosette forming cells (RFC). Kind of data set: cells. Conditions: Mus musculus, read-out: AZ minimal concentration inhibiting 50 percent spleen rosette forming cells.
Protocol: At the end of the incubation, 12 × 10^6 sheep red blood cells (SRBC) are added to the cells in the test sample. The cells in the sample are centrifuged for 6 minutes at 200 g. and carefully and gently resuspended by rotation on a roller (10 cm. diameter) at low speed (10 rev./min.). RFC are counted in a haematocytometer. In the absence of thymic activity, the number of RFC is 1210/10^6 cells ± 120 (standard deviation, SD). In the presence of thymic activity, the RFC level is lowered to 200 to 400/10^6 cells.

Values after ≈ are worked out from the molar mass of the structure shown. Non-standard residues stand in square brackets, D forms with d. No end group written: not given here. pGlu = O=C1CC[C@@H](C(=O)O)N1

Consider “pyroglutamyl-Ala-Lys-Ser-Gln-Gly-Gly-Ser-Asn ([pGlu]AKSQGGSN) [polypeptide hormone, polypeptide hormone isolated from porcine blood]”, for which the figures for the “isoelectric point (pI)” value in “isoelectric point” and in the data set “isoelectric point” (listed as thymic factor) were 7.5 ± 0.1 and roughly 7.5, respectively.
For `Cn1cnc([N+](=O)[O-])c1Sc1ncnc2nc[nH]c12` [AZ, azathioprine], the IC50 in data set [1] turned out to be 1 µg/mL (≈ 3.61 µM).

The values are drawn from patent US4133804A, “Polypeptide possessing thymic activity” (Institut National de la Sante et de la Recherche Medicale …, priority 1976, dated 1979).
